Measurements reported in publication PMC12361432.
Numbering of substitutions follows the chain as printed. In names and notes the source's numbering stands.

Key:
CCR9 F299A (human) = assay: flow cytometry on cells; TAMRA-labeled chemokine (four concentrations, highest 300 nM used to compare mutants) incubated 1 h with HEK293T cells expressing WT or mutant CCR9 in FACS buffer (1x PBS, 1 mM EDTA, 1% BSA); median fluorescence; nonspecific binding on parental HEK293T cells; binding ratios mutant:WT
CCR9 Y126A (human) = assay: as above
[1] = target: T1, TAMRA-labeled CCL25 (CCL25(1-73), norleucine 64, C-terminal azidolysine coupled to TAMRA-PEG4-DBCO); assay: flow cytometry on cells; settings: chain shown with the change; 300 nM TAMRA-CCL25; HEK293T cells; read off a plot
T1 chain: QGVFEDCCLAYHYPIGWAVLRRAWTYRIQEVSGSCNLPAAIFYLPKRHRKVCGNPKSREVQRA

With “TAMRA-labeled CCL25 (CCL25(1-73), norleucine 64, C-terminal azidolysine coupled to TAMRA-PEG4-DBCO) (ligand)” the CCL25-induced Ca^2+ mobilization in HEK293T cells expressing the CCR9 mutant, area under the concentration-response curve against WT (CCL25 without dye) (CCR9 K40A (human)) was less than 15%, the CCL25-induced Ca^2+ mobilization in HEK293T cells expressing the CCR9 mutant, area under the concentration-response curve against WT (CCL25 without dye) (CCR9 Y202A (human)) was less than 15% and the CCL25-induced Ca^2+ mobilization in HEK293T cells expressing the CCR9 mutant, area under the concentration-response curve against WT (CCL25 without dye) (CCR9 K211A (human)) was less than 15%. The CCL25-induced Ca^2+ mobilization in HEK293T cells expressing the CCR9 mutant, area under the concentration-response curve against WT (CCL25 without dye) (CCR9 R44A (human)) was less than 15%, the fold change in binding against WT CCR9 (CCR9 F299A (human)) was 2.2 fold and the fold change in binding against WT CCR9 (CCR9 Y126A (human)) was 2.5 fold. For the same molecule, the CCL25-induced Ca^2+ response in HEK293T cells expressing the CCR9 mutant, percent of WT output (CCL25 without dye) (CCR9 D296A (human)) was 15% and the CCL25-induced Ca^2+ response in HEK293T cells expressing the CCR9 mutant, percent of WT output (CCL25 without dye) (CCR9 S292A (human)) was 48%.

B1: C-C chemokine receptor 9 (CCR9), wild type Y202A (protein)
chain: MTPTDFTSPIPNMADDYGSESTSSMEDYVNFNFTDFYCEKNNVRQFASHFLPPLYWLVFIVGALGNSLVILVYWYCTRVKTMTDMFLLNLAIADLLFLVTLPFWAIAAADQWKFQTFMCKVVNSMYKMNFYSCVLLIMCISVDRYIAIAQAMRAHTWREKRLLYSKMVCFTIWVLAAALCIPEILYSQIKEESGIAICTMVAPSDESTKLKSAVLTLKVILGFFLPFVVMACCYTIIIHTLIQAKKSSKHKALKVTITVLTVFVLSQFPYNCILLVQTIDAYAMFISNCAVSTNIDICFQVTQTIAFFHSCLNPVLYVFVGERFRRDLVKTLKNLGCISQAQWVSFTRREGSLKLSSMLLETTSGALSL
B1 gave a ratio to parent [1] of 0.73.

B2: C-C chemokine receptor 9 (CCR9), wild type K211A (protein)
chain: B1 chain with A202Y, K211A
B2 gave a ratio to parent [1] of 1.1.

B3: C-C chemokine receptor 9 (CCR9), wild type S292A (protein)
chain: B1 chain with A202Y, S292A
With B3 the ratio to parent [1] was 0.66.

B4: C-C chemokine receptor 9 (CCR9), wild type D296A (protein)
chain: B1 chain with A202Y, D296A
B4 showed a ratio to parent [1] of 0.81.

B5: C-C chemokine receptor 9 (CCR9), wild type R44A (protein)
chain: B1 chain with R44A, A202Y
With B5 the ratio to parent [1] was 0.61.

B6: C-C chemokine receptor 9 (CCR9), wild type K40A (protein)
chain: B1 chain with K40A, A202Y
B6 gave a ratio to parent [1] of 0.83.
